Measurements as given in article PMC10876215, “Nucleosome conformation dictates the histone code” (eLife, 2024).
Where two headings read alike, the source gives them in different places.

Tests used:
BPTF BD (6His-tagged) [1] = target: T1, BPTF BD (6His-tagged) (Homo sapiens, UniProt Q12830); assay: dCypher binding assay, NCPs, 6His-BD Query
T1 construct: Q12830 (2914-3037); host or cells: E. coli BL21 (DE3)
Text: Human BPTF (Uniprot Q12830) PHD finger-bromodomain (PHD-BD) and PHD finger were cloned into pGEX6p with an N-terminal Glutathione S-Transferase (GST) tag and a PreScission protease cleavage site (Supplementary file 2A and Figure 1—figure supplement 2). BPTF BD with an N-terminal 6xHistidine (6His) tag and Tobacco Etch Virus (TEV) protease cleavage site was from Addgene (plasmid 39111). The Q5 site-directed mutagenesis kit (New England Biolabs [NEB]) was used for domain addition/removal or single amino acid substitutions. All constructs were expressed in E. coli BL21 (DE3) (Thermo Fisher Scientific or NEB). […] Protein concentrations were determined by UV-Vis spectroscopy.
The dCypher approach (dCypher for brevity) was developed on the chemiluminescent bead-based, no-wash Alpha platform (PerkinElmer) for the high-throughput profiling of CAP binding to PTM-defined histone peptides and semi-synthetic nucleosomes (homotypic NCPs unless stated otherwise) ([Marunde et al., 2022a]; [Morgan et al., 2021]; [Weinberg et al., 2019]; [Dilworth et al., 2022]; [Weinberg et al., 2021]; [Jain et al., 2020]; [Lloyd et al., 2020]). […] The plate was incubated at room temperature in subdued lighting for 60 min and the Alpha signal was measured on a PerkinElmer 2104 EnVision (680 nm laser excitation, 570 nm emission filter ± 50 nm bandwidth). […]

BPTF PHD-BD (GST-tagged) [2] = target: T2, BPTF PHD-BD (GST-tagged) (Homo sapiens, UniProt Q12830); assay: dCypher binding assay, NCPs, GST-PHD-BD Query
T2 construct: Q12830 (2865-3036); made in house; host or cells: E. coli BL21 (DE3)
Text: (§1) Human BPTF (Uniprot Q12830) PHD finger-bromodomain (PHD-BD) and PHD finger were cloned into pGEX6p with an N-terminal Glutathione S-Transferase (GST) tag and a PreScission protease cleavage site (Supplementary file 2A and Figure 1—figure supplement 2). BPTF BD with an N-terminal 6xHistidine (6His) tag and Tobacco Etch Virus (TEV) protease cleavage site was from Addgene (plasmid 39111). The Q5 site-directed mutagenesis kit (New England Biolabs [NEB]) was used for domain addition/removal or single amino acid substitutions. All constructs were expressed in E. coli BL21 (DE3) (Thermo Fisher Scientific or NEB). Cells were grown to OD600 ~1.0 and induced with 0.8 mM IPTG at 18 °C for ~16 hr in LB (or M9 minimal media for NMR). M9 media was supplemented with vitamin (Centrum Adult), 1 g/L ^15NH4Cl, and 5 g/L D-glucose. For constructs containing the BPTF PHD finger all growth media and buffers were supplemented with 100 μM ZnCl2. For purification of BPTF recombinants cells were lysed by sonication, and lysates were incubated with either glutathione agarose (Thermo Fisher Scientific) or Ni-NTA resin (Thermo Fisher Scientific) to respectively enrich for GST- and 6His-tagged proteins. Fusion proteins were eluted with reduced L-glutathione or imidazole as appropriate. […] Protein concentrations were determined by UV-Vis spectroscopy. […]

[3] = test system: GST-PHD^W2891A-BD (GST-PHD^mut-BD); format: binding, Human; settings: for binding: NCPs
Text: Human BPTF (Uniprot Q12830) PHD finger-bromodomain (PHD-BD) and PHD finger were cloned into pGEX6p with an N-terminal Glutathione S-Transferase (GST) tag and a PreScission protease cleavage site (Supplementary file 2A and Figure 1—figure supplement 2). BPTF BD with an N-terminal 6xHistidine (6His) tag and Tobacco Etch Virus (TEV) protease cleavage site was from Addgene (plasmid 39111). The Q5 site-directed mutagenesis kit (New England Biolabs [NEB]) was used for domain addition/removal or single amino acid substitutions. All constructs were expressed in E. coli BL21 (DE3) (Thermo Fisher Scientific or NEB). Cells were grown to OD600 ~1.0 and induced with 0.8 mM IPTG at 18 °C for ~16 hr in LB (or M9 minimal media for NMR). M9 media was supplemented with vitamin (Centrum Adult), 1 g/L ^15NH4Cl, and 5 g/L D-glucose. For constructs containing the BPTF PHD finger all growth media and buffers were supplemented with 100 μM ZnCl2. For purification of BPTF recombinants cells were lysed by sonication, and lysates were incubated with either glutathione agarose (Thermo Fisher Scientific) or Ni-NTA resin (Thermo Fisher Scientific) to respectively enrich for GST- and 6His-tagged proteins. Fusion proteins were eluted with reduced L-glutathione or imidazole as appropriate. For NMR, samples were cleaved from the GST tag using PreScission protease. All BPTF proteins were then further purified using anion exchange (Source 15Q, GE Healthcare Life Sciences) and size exclusion chromatography (SEC; Superdex 75, GE Healthcare Life Sciences). Protein concentrations were determined by UV-Vis spectroscopy.
The dCypher approach (dCypher for brevity) was developed on the chemiluminescent bead-based, no-wash Alpha platform (PerkinElmer) for the high-throughput profiling of CAP binding to PTM-defined histone peptides and semi-synthetic nucleosomes (homotypic NCPs unless stated otherwise) ([Marunde et al., 2022a]; [Morgan et al., 2021]; [Weinberg et al., 2019]; [Dilworth et al., 2022]; [Weinberg et al., 2021]; [Jain et al., 2020]; [Lloyd et al., 2020]). […]

BPTF PHD (6His-tagged) = target: T3, BPTF PHD (6His-tagged) (Homo sapiens, UniProt Q12830); assay: dCypher binding assay, histone peptides, 6His-PHD Query; settings: Table (Ext. Figure 2A), 4PL fit, H3 1-20 top constrained (426889)
T3 construct: Q12830 (2865-2924); made in house; host or cells: E. coli BL21 (DE3)
Text: as §1

BPTF PHD-BD (GST-tagged) [4] = target: T2, BPTF PHD-BD (GST-tagged); assay: dCypher binding assay, histone peptides, GST-PHD-BD Query
Text: as §1

BPTF BD (6His-tagged) [5] = target: T1, BPTF BD (6His-tagged); assay: dCypher binding assay, histone peptides, 6His-BD Query; settings: Table (Ext. Figure 2A), 4PL fit, top constrained (496106)
Text: as §1

[6] = test system: 21 bp double-stranded DNA; assay: NMR titration (1H-15N HSQC) of 15N-H4 tail peptide with dsDNA; format: binding; settings: 30 μM peptide; DNA ratios up to 1:3; 20 mM MOPS pH 7.2, 150 mM KCl, 25 °C
Description: The histone H4 tail (residues 1–25 followed by a C-terminal tyrosine for quantification) was expressed from pGEX6p as a fusion with an N-terminal GST tag followed by a PreScission protease cleavage site (Supplementary file 2A). This was overexpressed in E. coli BL21 (DE3) (NEB) grown in M9 minimal media supplemented with vitamin (Centrum daily multivitamin), 1 g/L ^15NH4Cl, and 5 g/L D-glucose. Cells were grown to OD600 ~1.0 and induced with 0.5 mM IPTG at 37 °C for 4 hr. The ^15N-GST-H4 peptide fusion was purified on glutathione agarose resin (Thermofisher Scientific), cleaved with PreScission protease (16 hr at 4 °C), and products resolved by SEC (Superdex 75 10/300; GE Healthcare Life Sciences). […] Acquisition and deconvolution software used during data collection and analysis were MassLynx and MaxEnt, respectively. ^15N-H4 (1-25) peptide concentration was determined by UV-vis spectroscopy using the non-native C-terminal tyrosine.
Oligonucleotides (5’-[…]-3’ and the complement 5’-[…]-3’) for DNA titration NMR were from Integrated DNA Technologies (IDT). […] Duplex DNA was purified on a source 15Q column (GE Healthcare Life Sciences) and analyzed by 1% agarose gel. DNA was precipitated in ethanol, resuspended in ddH2O, and concentration was determined by UV-vis and the predicted extinction coefficient (ε260=333,804.5 M^–1 cm^–1). […]

For “H3K4me3tri^ac: histone H3 peptide H3K4me3K9acK14acK18ac (NMR version aa 1–34)”, the “binding” value (BPTF BD (6His-tagged) [1]; Ext. Figure 2G, 6His BD) was “no binding”, the “binding” value (BPTF BD (6His-tagged) [1]; Table (Ext. Figure 2B), 6His-BD) was “no binding” and the “preference over H3K4me3 or H3tetra^ac” value (BPTF PHD-BD (GST-tagged) [2]) was over 20 fold. The “binding” value ([3]; Figure 2B lower, PHDmut-BD W2891A) was “no binding”, the “binding to NCPs (in words)” value ([3]; GST-PHD^mut-BD) was “lost binding” and the “binding” value ([3]; Table (Figure 2C), PHDmut-BD) was “no binding”. For the same substance, the “Log EC50rel” value (BPTF PHD (6His-tagged)) was -7.000 M, the “preference over peptides containing each PTM class alone (in words)” value (BPTF PHD-BD (GST-tagged) [4]) was “no preference” and the “Log EC50rel” value (BPTF BD (6His-tagged) [5]) was -5.811 M.

“^15N-H4 (1-25) peptide: histone H4 tail residues 1–25 followed by a C-terminal tyrosine, recombinant” was tested, and the “DNA binding by CSPs (in words)” value [6] was “the H4 tail bound DNA”.
